From patent publication US20010010935A1

Molecular target: murine SCI/MIP1-α Variant 3 (murine) (UniProt P10855)
Test: chromatographic techniques, molecular weight estimate

Q: Which estimated molecular weight (self-association) does the source give for “murine SCI/MIP1-α Variant 3 (from UniProt P10855) (ligand)” here?
A: 8 kD
